According to patent publication US20240190987A1, “Engineered EpCam Binding Antibodies” (TigaTX, priority 2021, published 2024):
Numbering of substitutions follows the chain as printed. Numbers in names are those of the source.

B1: Ab0785: LS2A R2M34 Fab, His-Tag, Avi-Tag (antibody, V domains shown)
VH: QVQLVQSGAEVKKPGASVKVSCKASGYTFTSYWMHWVRQHPGQGLEWMGIIHPNSGGTSYAQKFQGRVTMTRDTSTSTVYMELSSLRSEDTAVYYCAMGDYVSRDYWGQGTLVTVSS
VL: EIVLTQSPGTLSLSPGERATLSCRASSSVSSSYLHWYQQKPGQAPRLLIYSTSSRATGIPDRFSGSGSGTDFTLTISRLEPEDFAVYYCQQYSGYQFTFGQGTKLEIK
B2: Ab0788: LS2A R3M3 Fab, HC: S58N on R2M34 (antibody)
heavy: QVQLVQSGAEVKKPGASVKVSCKASGYTFTSYWMHWVRQHPGQGLEWMGIIHPNSGGTNYAQKFQGRVTMTRDTSTSTVYMELSSLRSEDTAVYYCAMGDYVSRDYWGQGTLVTVSSASTKGPSVFPLAPSSKSTSGGTAALGCLVKDYFPEPVTVSWNSGALTSGVHTFPAVLQSSGLYSLSSVVTVPSSSLGTQTYICNVNHKPSNTKVDKKVEPKSCGGGGSHHHHHHGGGGSGLNDIFEAQKIEWHEG
VL: B1 VL
B3: Ab0898: humanized LS2A R2M34 (antibody)
heavy: QVQLVQSGAEVKKPGASVKVSCKASGYTFTSYWMHWVRQHPGQGLEWMGIIHPNSGGTSYAQKFQGRVTMTRDTSTSTVYMELSSLRSEDTAVYYCAMGDYVSRDYWGQGTLVTVSSGGGGSGGGGSGGGGSEIVLTQSPGTLSLSPGERATLSCRASSSVSSSYLHWYQQKPGQAPRLLIYSTSSRATGIPDRFSGSGSGTDFTLTISRLEPEDFAVYYCQQYSGYQFTFGQGTKLEIKGGGGSDKTHTCPPCPAPEAAGGPSVFLFPPKPKDTLMISRTPEVTCVVVDVSHEDPEVKFNWYVDGVEVHNAKTKPREEQYNSTYRVVSVLTVLHQDWLNGKEYKCKVSNKALGAPIEKTISKAKGQPREPQVYTLPPSRDELTKNQVSLTCLVKGFYPSDIAVEWESNGQPENNYKTTPPVLDSDGSFFLYSKLTVDKSRWQQGNVFSCSVMHEALHNHYTQKSLSLSPGK
modifications: light chain not cited; REGION 1..472: note = Ab0898 HC
notes: humanized LS2A R2M34
B4: Ab0775: anti-CD3 binding domain, FIGS. 7A-7C (antibody)
heavy: EVQLVESGGGLVQPGGSLRLSCAASGFTFNTYAMNWVRQAPGKGLEWVGRIRSKYNNYATYYADSVKGRFTISRDDSKSILYLQMNSLRAEDTAVYYCVRHGNFGNSYVSWFAYWGQGTLVTVSSGGGGSGGGGSGGGGSDIQVTQSPSSLSASVGDRVTITCRSSTGAVTTSNYANWVQQKPGKAFKGLIGGTNKRAPGVPSRFSGSLSGDDATLTISSLQPEDFATYYCALWYSNLWVFGQGTKLEIKGGGGSDKTHTCPPCPAPEAAGGPSVFLFPPKPKDTLMISRTPEVTCVVVDVSHEDPEVKFNWYVDGVEVHNAKTKPREEQYNSTYRVVSVLTVLHQDWLNGKEYKCKVSNKALGAPIEKTISKAKGQPREPQVYTLPPSRDELTKNQVSLTCLVKGFYPSDIAVEWESNGQPENNYKTTPPVLDSDGSFFLYSKLTVDKSRWQQGNVFSCSVMHEALHNHYTQKSLSLSPGK
modifications: light chain not cited; REGION 1..482: note = Ab0775 HC
B5: Ab1018: anti-EpCAM binding domain, FIGS. 8A-8C (antibody, V domains shown)
VH: EVQLVESGGGLVQPGGSLRLSCAASGFTFSNYWMNWVRQAPGKGLEWVAQIRVKSENFATHYADSVKGRFTISRDDSKSTVYLQMNSLRAEDTAVYYCTLYEGFSWGQGTLVTVSS
VL: DIQMTQSPSSLSASVGDRVTITCSASSSVSSGNFHWYQQKPGKAPKLLIYRTSNLASGVPSRFSGSGSGTDYTLTISSLQPEDFATYYCQQWSGYPYTFGQGTKVEIK
B6: Ab1020: anti-EpCAM binding domain, FIGS. 8A-8C (antibody, V domains shown)
VH: B5 VH with N35H, E102D
VL: B5 VL
B7: Ab1022: anti-EpCAM binding domain, FIGS. 8A-8C (antibody, V domains shown)
VH: B5 VH with A40H, E102D
VL: B5 VL
B8: Ab1024: anti-EpCAM binding domain, FIGS. 8A-8C (antibody, V domains shown)
VH: B5 VH with A63V, E102D
VL: B5 VL
B9: Ab1026: anti-EpCAM binding domain, FIGS. 8A-8C (antibody, V domains shown)
VH: B5 VH with E102D
VL: B5 VL with W92A
B10: Ab1065 (antibody, V domains shown)
VH: B5 VH
VL: B5 VL with W92A
B11: Ab1066: anti-EpCAM binding domain, FIGS. 8A-8C (antibody, V domains shown)
VH: B5 VH with E102D, G103A
VL: B5 VL with W92A
B12: Ab1069: anti-EpCAM T-LITE (CT) antibody, FIGS. 8A-8C, 9C (protein)
light: DIQMTQSPSSLSASVGDRVTITCSASSSVSSGNFHWYQQKPGKAPKLLIYRTSNLASGVPSRFSGSGSGTDYTLTISSLQPEDFATYYCQQWSGYPYTFGQGTKVEIKRTVAAPSVFIFPPSDEQLKSGTASVVCLLNNFYPREAKVQWKVDNALQSGNSQESVTEQDSKDSTYSLSSTLTLSKADYEKHKVYACEVTHQGLSSPVTKSFNRGEC
heavy 1: QVQLVQSGAEVKKPGASVKVSCKASGYTFTSYWMHWVRQHPGQGLEWMGMIHPNSGGTNYAQKFQGRVTMTRDTSTSTVYMELSSLRSEDTAVYYCAMGDYVSRDYWGQGTLVTVSSGGGGSGGGGSGGGGSEIVLTQSPGTLSLSPGERATLSCRASSSVSSSYLHWYQQKPGQAPRLLIYSTSSRATGIPDRFSGSGSGTDFTLTISRLEPEDFAVYYCQQYSGYQFTFGQGTKLEIKGGGGSDKTHTCPPCPAPEAAGGPSVFLFPPKPKDTLMISRTPEVTCVVVDVSHEDPEVKFNWYVDGVEVHNAKTKPREEQYNSTYRVVSVLTVLHQDWLNGKEYKCKVSNKALGAPIEKTISKAKGQPREPMVFDLPPSREEMTKNQVSLWCMVKGFYPSDIAVEWESNGQPENNYKTTPPVLDSDGSFFLYSKLTVDKSRWQQGNVFSCSVMHEALHNHYTQKSLSLSPGKHHHHHH
heavy 2: EVQLVESGGGLVQPGGSLRLSCAASGFTFSNYWMNWVRQAPGKGLEWVAQIRVKSENFATHYADSVKGRFTISRDDSKSTVYLQMNSLRAEDTAVYYCTLYDGFSWGQGTLVTVSSASTKGPSVFPLAPSSKSTSGGTAALGCLVKDYFPEPVTVSWNSGALTSGVHTFPAVLQSSGLYSLSSVVTVPSSSLGTQTYICNVNHKPSNTKVDKKVEPKSCDKTHTCPPCPAPEAAGGPSVFLFPPKPKDTLMISRTPEVTCVVVDVSHEDPEVKFNWYVDGVEVHNAKTKPREEQYNSTYRVVSVLTVLHQDWLNGKEYKCKVSNKALGAPIEKTISKAKGQPREPQVYTLPPIRELMTSNQVSLSCAVKGFYPSDIAVEWESNGQPENNYKTTPPVLDSDGSFFLVSKLTVDKSRWQQGNVFSCSVMHEALHNHYTQKSLSLSPGK
modifications: REGION 1..215: note = Ab1069 Hole LC; REGION 1..478: note = Ab1069 Knob KC; REGION 1..446: note = Ab1069 Hole HC

Assay: Differential scanning fluorimetry (DSF) melting temperature
Format: physicochemical
Method: DSF was performed on a LC480 Lightcycler Instrument II (Roche). Purified recombinant protein was diluted to 5 μM in DSF buffer (PBS, pH 7.4, Sypro Orange 5×) with small molecule (10 μM VTX) or vehicle (0.05% DMSO) and then heated with a temperature gradient (0.01° C./s) from 25 to 95° C. Data were continuously acquired at ˜465 nm (excitation) and ˜580 nm (emission). Data was analyzed to generate first derivative curves in which the curve maximum was reported as the melting temperature of the protein.

[1] = thermostability by DSF, Table 26

Molecule | TM (° C.) [1] | also measured
B1 | – | TM (° C.) (Table 19): 70.9 °C
B2 | – | TM (° C.) (Table 19): 70.1 °C
B3 | – | TM (° C.) (scFv-Fc format, LS2A R3 (Table 20)): 52.5 °C
B4 | – | TM (° C.) (DSF, hSP34v68 R1 variants (Table 23)): 64.1 °C
B5 | 69.9 °C | –
B6 | 68 °C | –
B7 | 69.6 °C | –
B8 | 73.2 °C | –
B9 | 69.1 °C | –
B10 | 72.3 °C | –
B11 | 70.4 °C | –
B12 | – | TM (° C.) (thermostability by DSF, Table 27): 72.0 °C
